For 34 sequences, protease stability score results are on record in the NTF2 design screens of Basanta et al. (2020).

The data set is described as follows: protease stability score; higher = more stable; yeast display proteolysis, trypsin and chymotrypsin.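 Further: relative to predicted unfolded state with 0 unfolded-like and 1 meaning tenfold more protease.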
On to “DDEEHEARRVLEELIRVWITGNEELEDRLMDPNVRFVYGEYDLHGMEHFRHLLTVLKDQADHVSDVKLHDLEIQGDKVITRSVVDGVFNGRRFHRSQIIILIKVNGKWRIKSLHIH”, for which the protease stability score is 1.33.

With “SEDDEKIERWLHIILRAFETGDERILQELMDPNTRMDINGVEIHGRERVTKELHRIRKELGADHIEVRLTDEKRVNGRLRLHTQLHFHQGNKLIIIESRILFEKYDGKWMIESMSEK”, the protease stability score came to 1.05.

As to “SDEEDHWHELLERIVRLLMTGDEKTLNKLFDPNMRIIIIIGDKEIRLHGRHKFEKWVRDFLNKFKNVKIEIDDHRAVNGVVQIDGTLFIDGREHHVENNFFIVNGRITEIQIHIK”, the protease stability score amounted to 1.28.

For the sequence “DEMEKWSEMALDLIAETVETGDEHTYRRNFDPHTRVNVNGRHLHGMEVWLKELHELGIDRIEMDMKDIRIQGDKAIIILTLIINGRFHHVSIVSVKIDGRWHLHSVKYD”, the protease stability score is 0.33.

The sequence “DHEEKLSEDISRFLLELYLTGDPERLAKNADPNTKLIIDINGRHEDIHGREYIYKWSLDWFRKAGVTRVEFDLRSMDVQGEKAVIHGVNRVGDKDRHMTEIWIVVNGKLKEVRVKLE” displayed a protease stability score of 1.28.

In the case of “SEVEEWLRTLIHLIILAFRTGDEDQMRRNFDPNARVHVGDKDYHGRELFEEMMHHWRLHHIHIHDVRVQGDYVEADIKLDGEVNGKRFTTRVIIVFLKIDGKWQEKESEFV”, the protease stability score is 0.395.

In turn, “SEEERLAREISKELVEILLTGDEDRLLELADPDVRHILLFNGRDDDQHGRENMSRAEKLFREWLGVKHVDVTHVEVQGDKIHNDTVVDINGVRFEFRIIWVVVNGRVKVWRVEMR” returned a protease stability score of 1.52.

Turning to “SEEDHEHKVLTELSRKDWRTGNEHDLERLMDPNVRVEVDGREHHGWESAHELAKHFHRFFKNATLEIRHEEIQGEYLHIEMIIRVGDKVFDVHFIARKINGRWVLTEFSVH”, the protease stability score came to 0.261.

For the sequence “NEHEKLLKESLEELRHALRTGDEESLERLVDPHARMVVNGVTYHGREYLHRFFHRIDYFHNEHLDVKEVHVQGDKIHFDVVTHGVFHVGDKKIKDTIRLSSIAEKIDGRWFNREIFHH”, the protease stability score stood at 0.412.

Sequence “SEEEELLEHAYRHLIHTILTGDERLIEEMLDPNVRISIGEYHSHGREEAIRDVHELGIKHSERLHLTHVDSQGNKVRLHVEFVTNVNGVRRHVTVTWHIIKVNGKWYIESWDHQ” yielded a protease stability score of 1.83.

In turn, “REEEERVEHLARLVFRALMTGDEDEYKHLADPDDRLILVINGRRQEFHGMEVVLEWLRHLLKEIRIHHSHIHDVKVIGDKVDFDTSVDVEYNGQRHWRKMRVIIIIVNGRYRSVEIILE” had a protease stability score of 2.26.

“SEEEEHIREFWNLLLRAYRTGDEKQLRELFDPHVRIHINGKEIHGMEDMIRHIREIRVIITHLELREFSFFNGRAHVDGERDLRITVGEFHRSHRTDVTIITEKVNGQWRIEEVRVH”: the protease stability score stood at 1.46.

On to “SEHDDLIRHYAERIRKSLLTGDEHDLTELLDPNTYFEVRIGDFTLKAHGWERVHEVLDMINENLGIKHDDIQHIEWYGDKIHIDTRVRIGDKEIHTEVIIVVINGKVSKIEHRVI”, for which the protease stability score amounted to 0.45.

In the case of “NEHEEYARRQLELWLHATRTGDEETVRRLADPDVRVIVDGREHHGMEQLLRWMIELRITDFKEDTYEIQGNKIKIRGILYIEIGDKHETRFTTIELNWFNGVLKHIKVEVR”, the protease stability score worked out at 1.28.

In turn, “HEDEKWMKHMLEMLIRSILTGDEETLHKLADPHVRLEINGQEYWGREQFTHAITQFIRHIRIDSIHVHDYHIQGEKVDFDMRSKFTINGQVDTSRLRVFILKVDGRWVVEEVIIR” registered a protease stability score of 2.27.

“SDEEKIARLALEILIKILLTGDEKMILDNADPDVRLEVNGRQIHGMEWLSKIMTEWRFRDTHVRSVRNINGVVHVDGEQDVNYNGREETVHTHYIIEKVNGVWFLKRVVLH” yielded a protease stability score of 1.44.

“DHLRELMERVLERYRRALETGNFEELRNLADPHYRVDIDGQELIGMDEYKRHLIKIKNLKIHHVEIKDVKVQGDKAHVDQEDDIEFDGRRMRLRLHYIWLKFNGRWLLHSMEVE” came in with a protease stability score of 1.85.

The sequence “DEDDEAAQEAVKIVEEVTKTGNWRVLLELLDPHTRVHTEHHELHGMEEYVREVQKMMQDFGVTKVEVRFHEIIIIGEKIHMRVTIHVNGVTLDTEVVSLKYNGRWYLHTLRMK” returned a protease stability score of 1.

Sequence “DEEHRDFKHLIKIFDDSVETGDEETFHKLLDPDVRIRVGDWQLVGREEARRVFQQIRIIIHSNRIHDVKVINGKIHADTHVDFRIEVGDKTVRERSRTIIYLDKVNGVWTIHSIEFK” returned a protease stability score of 1.08.

In the case of “DEDEHHSELASRLMHETTRTGDETSFLNLADPDTRLDINGREFIGREEWVKFFHKWSKHLGAKVIDTRFNDLRVIDGRIKLDMEYIVHVGDKTMHHKMIVFALKVNGRWHLESLKFE”, the protease stability score turned out to be 0.436.

For the sequence “TEMEEWSRLAIEIWEEVVRTGNEHDMARLLDPNTRLIVGEKEYHGMETVMHLLERIKNLVLRRFHIEHVRLQGDKVEIDARSVHHVNGRDIETTLKIISFKFNGRWTIRQESII”, the protease stability score came out at 0.614.

In the case of “DEDEEIDKHVAKHLEELFLTGDEKRLSQYFDPDVRNEVNGKEFHGRELLLKVLRDFGADHRTVEHREVSLYGEKMRFHIHLRLHVGDKSMTTILHIIIDKVNGRWHFEKIRIDVR”, the protease stability score was 0.798.

In turn, “DEIEEDMRKSIEDVIKAHLTGDEKTYRRLFDPHVRIDIDGVDFHGWEESRRMLQEIRISIEDWKIERMEIQGDKIHIDSRVDLTVYIDGKKERDTIERHIILVKFDGRWTIESVDFR” yielded a protease stability score of 1.37.

In turn, “DEHEEKLIKHMESLLHWEETGDEESMLKNADPNARHDVNGVEFHGMHRFVHHVIKRGWRFRMEVEHVDAFDGRYRVEGTLILNFDGVEHRHHVILRFIVIDGRLHERKVEVR” registered a protease stability score of 1.46.

In turn, “SEDDRDAEKMSKDWIHLMLTGDEDHLRELLDPNVRMEQGDKEFIGRELLVEVFSRTVKHLGIKHIQLEESRTNVQGEKVIVILIMDYRAENRRVEFHIHLIVDKVNGRWLVQSVRFRFK” gave a protease stability score of 1.25.

Consider “SEEEQRKEDFLRWFHKALLTGDEEVLLKMADPNVRADINGVDIHGWKEFRQTTHDLRREIRIRDFEVKDEKLVGDKLHVDSSVDGEFDGRRHELKTHLIFLKVDGKWFFKEIRIK”, for which the protease stability score was 1.34.

Consider “REDKKDAEDIIRWLLRAWHTGDPRDVEKMMDPNTLSDINGQKIHGREDVSRFNEFILRHARVEVDVHSMEVYGNYLHVDERFTLRIGDKEIRTETHIIIIKVNGRWLVQTISYG”, for which the protease stability score was 0.782.

“KEEETHAREVSEANEHLLETGDWRRLSHLLDPNAKITINGRHFHGREFFTELQKRHEDMLGIKHRHIEDSTVVGDKVIIHTYYHVDGKTLDIEIIIVVINGRHERVEWRFK” showed a protease stability score of 0.782.

In turn, “DEEKEELEKATEEWVHFMRTGDEDSLIKNLDPNVKNIFNGKEEIGREDLSHFIKHMGAKVVRIEDIKTQGDKVIIDTRIEVGDKHFEVTLYFEKINGRWFLHSVEIR” registered a protease stability score of 0.512.

Take “DRREEHAVNVFEIMFVLLLTGDETLFDKLFDPHVLFIIGDKEYHGRERFSKEMLRWIEEWRIQEFKIKDVRVVGDKAEIDGRIRGRYGDKETEIELHLIVMKVDGRWLVHSIELV”: the protease stability score amounted to 1.09.

As for “SDLEEEALNLAREWMHNWVTGNEEREEELLDPNVRSDINGRHFHGRERISRMIRYLLDEIRVHDVKEHDMEIQGEKVRIDGRIDGEVNGKRKILVMHFHIVVIDGVIHSVEVRIE”, the protease stability score came to 1.18.

In turn, “DEENKHLKEIARRFVEDWETGDEDSLKHMLDPHARVVINGVEVHGREEIIKLFREIFHHIRIDHITVNTVITVNGVAHSHIHIRVDINGQERRHNTELIFVFVDGQVSQIKFETE” displayed a protease stability score of 1.24.

“DEDERLLKELLESLIKSHRTGDWEHLRENADPRTRLEIGDKEIIGMEKVTHFWERERKRADHEHIEIHDMKIYDGVAHVDTRLHFHFNGVDITLEFRLIMLKVNGRWILKSEHLK” displayed a protease stability score of 0.133.

Consider “SEDKELADRFLNHITHLIRTGDENALSENLDPNTRLHIGDKHYIGWEEFLRIISERWKRADHQDVKLRDSRVQGDKVHLDGEIILIVDGKEIRHDFRIIVYKIDGRWHLESIRIG”, for which the protease stability score is 2.09.
